Source: FireProtDB (doi:10.1016/0167-4838(93)90045-s)

Details: Carica papaya, Thermal, DSC, glycine 0.05M, reversible: No

Sequence of Chymopapain wild type, P14080 (P14080 whole entry): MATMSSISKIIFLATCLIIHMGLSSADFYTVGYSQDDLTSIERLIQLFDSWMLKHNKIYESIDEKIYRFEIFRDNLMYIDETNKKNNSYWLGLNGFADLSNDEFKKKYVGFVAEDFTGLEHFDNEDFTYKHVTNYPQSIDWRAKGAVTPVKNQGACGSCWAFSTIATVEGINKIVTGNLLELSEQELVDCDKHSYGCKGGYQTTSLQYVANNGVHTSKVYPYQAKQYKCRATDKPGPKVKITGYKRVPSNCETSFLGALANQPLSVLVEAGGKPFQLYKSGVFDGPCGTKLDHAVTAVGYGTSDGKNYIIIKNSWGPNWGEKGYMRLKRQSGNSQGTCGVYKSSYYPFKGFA

Chymopapain wild type, P14080
Tm (pH 1.2): 43 °C | unfolding enthalpy (calorimetric) (pH 1.2): 105 kcal/mol | Tm (pH 1.91): 56.9 °C | unfolding enthalpy (calorimetric) (pH 1.91): 138 kcal/mol | Tm (pH 2.2): 62 °C | unfolding enthalpy (calorimetric) (pH 2.2): 144 kcal/mol | Tm (pH 2.35): 67.9 °C | unfolding enthalpy (calorimetric) (pH 2.35): 161 kcal/mol | Tm (pH 2.56): 75.2 °C | unfolding enthalpy (calorimetric) (pH 2.56): 174 kcal/mol | Tm (pH 3.18): 81.1 °C | unfolding enthalpy (calorimetric) (pH 3.18): 193 kcal/mol | Tm (pH 3.45): 83.7 °C | unfolding enthalpy (calorimetric) (pH 3.45): 199 kcal/mol
